Reference: article PMC5607963

Molecular target: F-actin polymerized from rabbit skeletal muscle G-actin, stabilized with phalloidin (rabbit), P68135
Assay: co-sedimentation
Conditions: remark: other sources report otherwise

B1: αE-catenin homodimer, P26231 1-906 (natural protein)
chain: MTAVHAGNINFKWDPKSLEIRTLAVERLLEPLVTQVTTLVNTNSKGPSNKKRGRSKKAHVLAASVEQATENFLEKGDKIAKESQFLKEELVVAVEDVRKQGDLMKSAAGEFADDPCSSVKRGNMVRAARALLSAVTRLLILADMADVYKLLVQLKVVEDGILKLRNAGNEQDLGIQYKALKPEVDKLNIMAAKRQQELKDVGNRDQMAAARGILQKNVPILYTASQACLQHPDVAAYKANRDLIYKQLQQAVTGISNAAQATASDDAAQHQGGSGGELAYALNNFDKQIIVDPLSFSEERFRPSLEERLESIISGAALMADSSCTRDDRRERIVAECNAVRQALQDLLSEYMGNAGRKERSDALNSAIDKMTKKTRDLRRQLRKAVMDHVSDSFLETNVPLLVLIEAAKNGNEKEVKEYAQVFREHANKLIEVANLACSISNNEEGVKLVRMSASQLEALCPQVINAALALAAKPQSKLAQENMDLFKEQWEKQVRVLTDAVDDITSIDDFLAVSENHILEDVNKCVIALQEKDVDGLDRTAGAIRGRAARVIHVVTSEMDNYEPGVYTEKVLEATKLLSNTVMPRFTEQVEAAVEALSSDPAQPMDENEFIDASRLVYDGIRDIRKAVLMIRTPEELDDSDFETEDFDVRSRTSVQTEDDQLIAGQSARAIMAQLPQEQKAKIAEQVASFQEEKSKLDAEVSKWDDSGNDIIVLAKQMCMIMMEMTDFTRGKGPLKNTSDVISAAKKIAEAGSRMDKLGRTIADHCPDSACKQDLLAYLQRIALYCHQLNICSKVKAEVQNLGGELVVSGVDSAMSLIQAAKNLMNAVVQTVKASYVASTKYQKSQGMASLNLPAVSWKMKAPEKKPLVKREKQDETQTKIKRASQKKHVNPVQALSEFKAMDSI
  Kd: 2.9 µM
